Each block holds one binder with its values, some of them ahead of it.
Assays:
[1] = target: human HMGB1 protein (human) (UniProt P09429); assay: SPR, Biacore T100, antibody immobilized on chip, human HMGB1 as analyte
[2] = target: T1, human disulfide HMGB1 (human, UniProt P09429 1-215, disulfide form (ds-HMGB1) as printed; the cysteines involved are not stated); assay: SPR, antibody after 6-month storage at 4 C; unit inferred; after storage for 6 months at 4° C
T1 construct: also called human dsHMGB1; ds-HMGB1
T1 sequence (looked up): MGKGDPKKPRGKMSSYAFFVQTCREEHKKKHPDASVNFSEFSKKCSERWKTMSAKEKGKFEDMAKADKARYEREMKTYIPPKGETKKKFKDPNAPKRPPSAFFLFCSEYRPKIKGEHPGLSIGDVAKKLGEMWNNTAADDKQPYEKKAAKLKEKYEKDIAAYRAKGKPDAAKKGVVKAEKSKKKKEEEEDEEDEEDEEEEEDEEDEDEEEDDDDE

[3] = target: T1, human disulfide HMGB1; assay: ELISA, saturation curve: concentration of bound antibody against concentration of added antibody, on human dsHMGB1
[4] = target: T1, human disulfide HMGB1; assay: SPR as in Example 1; unit inferred; human dsHMGB1; before storage
[5] = target: T2, human reduced HMGB1 (human, UniProt P09429 1-215, reduced form as printed); assay: SPR as in Example 1; unit inferred; human reduced HMGB1
T2 sequence (looked up): T1 sequence (looked up)

[6] = target: T1, human disulfide HMGB1; assay: SPR, antibody after against before 6-month storage at 4 C
[7] = target: T2, human reduced HMGB1; assay: ELISA, saturation curve: concentration of bound antibody against concentration of added antibody, on human reduced HMGB1

- Kd [1]: 1.95 nM
B1: mouse monoclonal antibody 2C8C (antibody, from another filing, V domains shown)
VH: QVQLQQSGPELVKPGASVKLSCKASGYTFTDYTIHWVKQSPGQGLEWIGWIYPGSGNTKYNDKFKGKATMTADKSSSTAYMQLSSLTSEDSAVYFCARGFAYWGQGTLVTVSA
VL: DIVLTQSPATLSVTPGDSVSLSCRASQSISNNLHWYQQKSHESPRLLIKYASQSISGIPSRFSGSGSGTDFTLSINSVETEDFGMYFCQQTNSWPLTFGAGTKLELK

- Kd [2]: 0.0351 nM
- Kd [3]: 0.0549 nM
- Kd [4]: 0.0144 nM
- Kd [5]: 15100 nM
- fold increase of KD after storage against before storage [6]: ~2.5 fold
- Kd [7]: 6880 nM
- Km [7]: 4.34e-09 M (from the axes; none beside the number)
B2: human monoclonal antibody #129-L2 (antibody, human IgG1, kappa, V domains shown)
VH: EVQLLESGGGLVQPGGSLRLSCAASGFTFSSYAMSWVRQAPGKGLEWVSDISGSGGSTYYADSVKGRFTISRDNSKNTLYLQMNSLRAEDTAVYYCARGYGMDVWGQGTMVTVSS
VL: DIQMTQSPSSLSASVGDRVTITCRASQSVTNYLAWYQQKPGKAPKLLIYGASILETGVPSRFSGSGSGTDFTLTINSLQPEDFATYYCLQHASTPLTFGQGTKLEIKT
